In the DeepSol protein solubility set:

Experiment: soluble on expression in E. coli; label from the status in PepcDB or PDB records
For “MNIQAIDTRHGTANQHSFSNGNCLPYTGVPFGMNFYAPQTTDQKGSWWFHPEDRTFQGYRVTHQPSPWMGDFSHLLMTPVSGSLSELSLFHAQSSYRPEESLFSPVEINLTQLRYQITSQLIPSMYGGILTIDYQQKDNHLLLTLPGRYQVKQLDDHQVAVKVINYSGCEDPDFSFYFVLHFEQPLTKWFAPSSGLEHHHHHH”, the “soluble on expression in E. coli” value was “not soluble”. With “MSAKEKFTSLSPAEFFKRNPELAGFPNPARALYQTVRELIENSLDATDVHGILPNIKITIDLIDDARQIYKVNVVDNGIGIPPQEVPNAFGRVLYSSKYVNRQTRGMYGLGVKAAVLYSQMHQDKPIEIETSPVNSKRIYTFKLKIDINKNEPIIVERGSVENTRGFHGTSVAISIPGDWPKAKSRIYEYIKRTYIITPYAEFIFKDPEGNVTYYPRLTNKIPKPPQEVKPHPYGVDREEIKILINNLKRDYTIKEFLVNEFQSIGDTTADKILELAGLKPNKKVKNLTEEEITRLVETFKKDEDFRSPSADSLSVIGEDLIELGLKKIFNPDFAASITRKPKAYQGHPFIVEAGVAFGGSIPVGEEPIVLRYANKIPLIYDEKSDVIWKVVEELDWKRYGIESDQYQMVVMVHLCSTKIPYKSAGKESIAEVENIEKEIKNALMEVARKLKQYLSEKRKEQEAKKKLLAYLKYIPEVSRSLATFLASGNKELVSKYQNEISEGLFKLISKKLDLINIEEYRKVYRVDSE” the “soluble on expression in E. coli” value was “soluble”. In the case of “MSLTAHGLCEFIDASPSPFHVCATVAGRLLGAGYRELREADRWPDKPGRYFTVRAGSLVAWNAEQSGHTQVPFRIVGAHTDSPNLRVKQHPDRLVAGWHVVALQPYGGVWLHSWLDRDLGISGRLSVRDGTGVSHRLVLIDDPILRVPQLAIHLAEDRKSLTLDPQRHINAVWGVGERVESFVGYVAQRAGVAAADVLAADLMTHDLTPSALIGASVNGTASLLSAPRLDNQASCYAGMEALLAVDVDSASSGFVPVLAIFDHEEVGSASGHGAQSDLLSSVLERIVLAAGGTREDFLRRLTTSMLASADMAHATHPNYPDRHEPSHPIEVNAGPVLKVHPNLRYATDGRTAAAFALACQRAGVPMQRYEHRADLPCGSTIGPLAAARTGIPTVDVGAAQLAMHSARELMGAHDVAAYSAALQAFLSAELSEAEGHHHHHH”, the “soluble on expression in E. coli” value is reported as “not soluble”. For “MGSDKIHHHHHHMTLSEYLQQLTQFKTIEELWRAHVQQMSRYGFDRLLYGYTLFKTRTSLGDPDDFVILTNHCPEYLQGFLADGLYAHAPMLTWALENEGHASWRVSQEMAAQGLLDKQARKVQDFNQSMGVHAGYTISFNSASERFKGAISLAARADLDQDGIDQIWAEHGADIVLMNNVAHLKILTLPYHAPKRGLTKRQREVLQWVGDGKTTQDIALLMGLTPATIEKHLRLARATLSVETTAQAVLKAALHNQMYAVEH”, the “soluble on expression in E. coli” value was “not soluble”. In the case of “MADKHLIREKVLRNLNTIDKVEHRERSIKLAEKLFLLPEWNQAKVIGITLARHPEIETETIILQAKKEGKTVLIPKTFYPSRKMEFKKMDSSHPLTKTKFGILEPHELAETVDKDAIDLLIVPGVVFNKAHFRIGFGGGFYDRFLADFKGETVSLCLYEQQIEFTPESHDKPVSILIEG”, the “soluble on expression in E. coli” value is reported as “soluble”. In the case of “GPSSPAGGEARVHVLVLSSWRSGSSFVGQLFNQHPDVFYLMEPAWHVWTTLSQGSAATLHMAVRDLVRSVFLCDMDVFDAYLPWRRNLSDLFQWAVSRALCSPPACSAFPRGAISSEAVCKPLCARQSFTLAREACRSYSHVVLKEVRFFNLQVLYPLLSDPALNLRIVHLVRDPRAVLRSREQTAKALARDNGIVLGTNGTWVEADPGLRVVREVCRSHVRIAEAATLKPPPFLRGRYRLVRFEDLAREPLAEIRALYAFTGLSLTPQLEAWIHNITHGSGPGARREAFKTSSRNALNVSQAWRHALPFAKIRRVQELCAGALQLLGYRPVYSEDEQRNLALDLVLPRGLNGFTWASSTASHPRN”, the “soluble on expression in E. coli” value is reported as “soluble”. For “MQPLFTQERRIFHKKLLDGNILATNNRGVVSNADGSNTRSFNIAKGIADLLHSETVSERLPGQTSGNAFEAICSEFVQSAFEKLQHIRPGDWNVKQVGSRNRLEIARYQQYAHLTALAKAAEENPELAAALGSDYTITPDIIVTRNLIADAEINRNEFLVDENIATYASLRAGNGNMPLLHASISCKWTIRSDRAQNARSEGLNLVRNRKGRLPHIVVVTAEPTPSRISSIALGTGEIDCVYHFALYELEQILQSLNYEDALDLFYIMVNGKRLKDISDLPLDLAV”, the “soluble on expression in E. coli” value was “soluble”. For “MDKLKFGLVSLGCDKNRVDSEIILGSMNRDYEIVNDPREADVILVNTCGFIESAKQESINTILEMNKYKEKYNCKMLIATGCLTQRYGKELKELVPEIDAILGVNDYKSLDDAIEDFFNLGKKDIYCNYSDQSINEGKRIITTGEYSSYVRISEGCNNSCSYCIIPKIRGKYRSRQFENIIDEVRELSENGTKEVILIAQDTTRYGVDLYGRKRLHELLKEMSLIQGIEWIRIMYCYPEEITEELIEEIASNEKVCNYIDMPIQHISDNILKNMFRKTRKSEILDKVEKIRKKVPNIAIRTSLIVGFPGETEGDFNELCDFVKDANINNLGVFRYSREEGTKAALMPMQIADTVKEKREEDIMLIQQQVSKNLNAKKIGKVYKVIVEGFNGDYWYGRNFEMAPEIDGKVFFKSQSEIKVGSFINIKITENLEYDLIGVVYNEFSKLEHHHHHH”, the “soluble on expression in E. coli” value was “soluble”. With “GPGSMVDVIIYTRPGCPYCARAKALLARKGAEFNEIDASATPELRAEMQERSGRNTFPQIFIGSVHVGGCDDLYALEDEGKLDSLLKTGKLI” the “soluble on expression in E. coli” value was “soluble”. In the case of “MSLVPARPNRPEADREALWKIVHDRCEFGYRRTGAYAPCTFVDEQSGTALYKADFDPYQFLLIPLARITGIEDPALRESAGRNYLYDAWAARFLVTARLNNSLPESDVVLTINPKNARTQDQLHIHISCSSPTTSAALRNVDTSEYVGWKQLPIDLGGRRFQGLAVDTKAFESRNLFRDIYLKVTADGKKMENASIAVANVAQDQFLLLLAEGTEDQPVAAETLQDHDCSITKSEGHHHHHH”, the “soluble on expression in E. coli” value is reported as “soluble”. In the case of “MDKPILKDSMKLFEALGTIKSRSMFGGFGLFADETMFALVVNNQLHIRADQQTSSDFETQGLKPYVYKKRGFPVVTKYYAISSELWESSDRLIEVAKKSLENAKLEKEQQASTKPNRLKDLPNLRLATERMLKKAGIDSVAQLEEEGALSAYKAIRDTHSTTVSLELLWALEGAINGTHWSVVPQSRREELMNGLS”, the “soluble on expression in E. coli” value is reported as “soluble”. In the case of “MTTHLPSTSQNGEEISAEQFNRIFHERNVIVLDCRSNGDSVKRANRFFCSLRLPALLQRRLMGGSMRLSTVPDLKDLNNSPDQCPEVLLIPGDSEQDEQLSAALARNLKSNHYRHFVLGEPVKTLLSQFPTLRDAADENWNTTFQMNSMPGQASGQQASSGPLLNLNQLRLEGEDQGGKQRAEFPVKLTNFLYLGNAETAKNRDVLKKYSISHVINVTSNLPNTFEEDPNMRYLRISADDNASHNLTKFFPEAISFIDDARRNDSACLVHCLAGISRSVTICLAYLMKTEMCTLDSAYEWVQKRNASIAPNFHFMGQLTDYEKMLGLNSNRVGVSRQAVNFDVHFFCIFKLKKKEENSPESRILAETAV”, the “soluble on expression in E. coli” value is reported as “not soluble”. For “MGATGSSQLEKEISTTESVNNANEHYYGLVNALFFCRPFREKVLNYKQTLKKSGASKDNLVTCLADLFHSIASQKRRVGTIAPKRFITKLKKENELFDNYMQQDAHEFFNYLINTISETLIQEKIAEREKASRHGTLKKGNVTVNLAPATAGLPRSDEKGTSERNGGITVEGNEFLNKSDTTTWIHEIFQGILTNETRCLSCETVSSKDEDFLDLSIDVEQNTSISHCLRVFSETETLCGDQKYFCETCSSKQEAQKRMRIKKPPQLLALHLKRFKFVEPLNRHTKLSYRVVFPLELRLFNVSDDAEYGDRMYDLVATVVHCGATPNRGHYITLVKSNSFWLVFDDDIVEKLEVSSMEEFSGMSTDANIQMPPGNQSAPQKEFRICLYSVLSGKRLRC”, the “soluble on expression in E. coli” value was “not soluble”. In the case of “TNAVNIVMRQPTTPNFSSALNITSANEGGSAMQIRGVEKALGTLKITHENPSVDKEYDENAAALSIDIVKKQKGGKGTAAQGIYINSTSGTAGKMLRIRNKNKDKFYVGPDGDFWSCASSIVDGNLTVKDPTSGKHAATKDYVDEKIAELKKLILKK”, the “soluble on expression in E. coli” value is reported as “soluble”. For “MGSDKIHHHHHHMESSFEVETRTVFDRYQRQQENDDHIFDRLVSLIEEEYFGLPTGSFRGLDVLDAGCGSNANASWAFLDKGARNVVSLELSNDWMDCARKRLSRFGLRSELVAGSVLDLPFDDFSFDFVHCAGVLPHTSNPKKGFEELARVTRPGGSFFLTIMGTANGVIYRCINHLRELYQSDEQFRSSIDNLDASTAREAINWLLRIKDGEEKEYIPGENEFFRSLFDDDLFVTIRDRFQAPTYHEFAFTEAQIRGWYGECGFEKIRRISRYTKNFHNLRRFLAPMYRHYDHPLARFWFGDGCIQMIGEKPST”, the “soluble on expression in E. coli” value was “not soluble”. With “MNARSTGQHPARYPGAAAGEPTLDSWQEPPHNRWAFAHLGEMVPSAAVSRRPVNAPGHALVRLGAIAAQLPDLEQRLEQTYTDAFLVLRGTEVVAEYYRAGFAPDDRHLLMSVSKSLCGTVVGVLVDEGRIDPAQPVTEYVPELAGSVYDGPSVLQVLDMQISIDYNEDYVDPASEVQTHGRSAGWSTRRHGDPADTYEFLTTLRGDGSTGEFQYCSANTDVLAWIVERVTGLRYVEALSTYLWAKLDADRDATITVDTTGFGCAHGGVSCTARDLARVGRMMLDGGVAPRGRVVSEDWVRRVLAGGSHEAMTDKGFTNTFPDGSYTRQWWCTGNERANVSGIGIHGQNLWLDPLTDSVIVKLSSWPDPYTEHWHRLQNGILLDVSRALDAV” the “soluble on expression in E. coli” value was “soluble”. In the case of “MENLKKYLEVAKIAALAGGQVLKENFGKVKKENIEEKGEKDFVSYVDKTSEERIKEVILKFFPDHEVVGEEMGAEGSGSEYRWFIDPLDGTKNYINGFPIFAVSVGLVKGEEPIVGAVYLPYFDKLYWGAKGLGAYVNGKRIKVKDNESLKHAGVVYGFPSRSRRDISIYLNIFKDVFYEVGSMRRPGAAAVDLCMVAEGIFDGMMEFEMKPWDITAGLVILKEAGGVYTLVGEPFGVSDIIAGNKALHDFILQVAKKYMEVAV”, the “soluble on expression in E. coli” value is reported as “soluble”. For “MNESGFLIDTHAHIDGHDFAADFDAMLSRAWEAGLSHIVTVGADLESSRAAVALAGRHERIWCAVGIHPHDAGRVTDRCYDEIRTLAQGNPKVAAIGEIGLDFFRDRSPRDEQEQVFRRFIRLARELALPIVVHDRDAHERVMAILREEKARDVGGVLHCFSGDLAMARECVDMGFLISIPGTVTYPSNEALREVVRGVKIEHLLVETDCPYLTPVPHRGKRNEPAYVRLTAEKVAELKGLSLEDVGRITSLNARRLFGIGESDQAARIAYRIRNSLYLNITNRCSNRCSFCAKFDDYTVKGHHLRLDHEPDSAEVLAAVGEPGPVDEIVFCGFGEPMLRLDLIVEVARELKKRGFRIRINTDGQANLVHGRNVLPELQGLVDCISVSLNAADADTYARLCNTPFGTNGFNGICRFLEEARLYIPTVVATAVTVPGIDVAAVRALAESLGVEFREREFAEVGLEHHHHHH”, the “soluble on expression in E. coli” value was “soluble”. In the case of “VGTIDQLVKRVIEGSLSPKERTLLKEDPAYWFLSDENSLEYKYYKLKLAEMQR”, the “soluble on expression in E. coli” value is reported as “soluble”. With “MQDGESNFPLLLLPENAKKHVLRTMDVDFLLSLSFCSKRTKHIVQSLKLKFEHFKMDLLGKTKLMINFRSTTILLVFNALYGDKAWKDVFRTVVSTGPPNARYYNTNFFKSFGWERKELAVEDTIYHIFDILNTNVIDVFLDCNNRNMFFFEKLSQTFRERNVRRISLGSMQNPIFNSFSYLENSLRNQFLELEGLAYLRELYRTLQEEHKILIQNFNYLNPNLPSTGKMTLNELLLINSSHITLTFNEMALNEKSLNIFLKHWINGSNKKLDYMYLSGFTQLGETSVAIEAILKRIVHKEASHDRLFKKFYDPGSNGNIGDNSSSLKHGFDIISNDGTPATASIRISEGVIYFQMKVWDQ” the “soluble on expression in E. coli” value was “not soluble”.
